Measured values as given in patent US20240034786A1 (WUXI BIOLOGICS IRELAND, published 2024).

How the values were obtained:
[1] = target: T1, Human P-cadherin on cells (human, UniProt P22223 108-829); test: FACS on HCT-116 cells
T1 construct: whole, on cells; Endogenous P-cadherin on tumour cell lines; also called hPro1
Protocol: (§1) Binding of the test antibodies to P-cadherin expressed on cells was determined by flow cytometry analysis. […] 1×10⁵ cells/well (100 μL) were added to each well of a 96-well U-plate (Corning, #3799) and centrifuged at 1500 rpm (Eppendorf, #5810R) for 5 minutes before removing the supernatant. Antibodies serially diluted in 1% BSA/1×PBS (Ca+/Mg+) were added at 100 μL/well to the pelleted cells and incubated at 4° C. for 1 hour. Anon-related hIgG1 antibody was used as an isotype control. Cells were washed two times with 180 μL/well of 1% BSA/1×PBS (Ca+/Mg+) by centrifugation at 1500 rpm for 5 minutes at 4° C. Pelleted cells were resuspended in 100 μL/well Alexa647 conjugated Goat anti-human IgG Fc (Jackson, #109-605-098) 1:500 diluted in 1% BSA/1×PBS (Ca+/Mg+) for 30 minutes at 4° C. in the dark. Cells were then washed two times as described above. After the final wash, cells were resuspended in 100 μL 1% BSA/1×PBS (Ca+/Mg+) and fluorescence values were measured with a FACS Canto II cytometer (BD Biosciences). The amount of cell surface bound anti-P-cadherin antibody was assessed by measuring the mean fluorescence (MFI). The FACS raw data were analyzed by FlowJo software, wells containing no antibody or secondary antibody only were used to establish background fluorescence. Binding EC50 values were obtained by the four-parameter non-linear regression analysis using GraphPad Prism6 software.

[2] = target: T1, Human P-cadherin on cells; test: FACS on HCT-116 cells; remark: listed apart in the source
Protocol: as §1
Binding of the antibodies to human P-cadherin expressed on cells was determined by flow cytometry analysis.

[3] = target: T1, Human P-cadherin on cells; test: cell-based or functional assay
[4] = target: T1, Human P-cadherin on cells; test: cell-based or functional assay; remark: listed apart in the source
[5] = target: T1, Human P-cadherin on cells; test: cell-based or functional assay; remark: listed apart in the source
[6] = target: T2, W319-hPro1.D1.ECD.hFc (human, UniProt P22223 108-236); test: direct ELISA on coated antigen
T2 construct: range 108-236; also called Human P-cadherin ECD domain 1; not shown: human Fc by the code hFc
Protocol: The binding of the antibodies to W319-hPro1.D1.ECD.hFc, W319-hPro1.D12.ECD.hFc (WT), W319-hPro1.D123.ECD.hFc (WT), W319-hPro1.D1234.ECD.hFc (WT) (2.5) and W319-hPro1.ECD.hFc (WT)-P3 were tested by a direct protein binding ELISA. 96-well high protein binding ELISA plates (Nunc MaxiSorp, ThermoFisher, Cat #: 442404) were coated overnight at 4° C. with 1 μg/mL antigens in Carbonate-bicarbonate buffer (20 mM Na2CO3, 180 mM NaHCO3, pH=9.2). All wells were washed three time with 300 μL per well of PBS/0.5‰ Tween-20 (v/v) and all the following wash steps in the assay were performed the same. The wells were then blocked for one hour with 2% BSA (Bovogen, Cat #: BSAS)/1×PBS (Ca+/Mg+) (Gibco, #14040-117) and washed three times. For the primary antibody binding, the testing antibodies including the BMKs and our antibodies serially diluted in 2% BSA/1×PBS (Ca+/Mg+) were added to the relevant wells and incubated at room temperature for two hours. Plates were washed three times prior to the addition of 100 μL of secondary antibody Goat anti-Human-IgG-F(ab′)2-HRP (Jackson, Cat #: 109-035-097) 5000-fold diluted in 2% BSA/1×PBS (Ca+/Mg+). Plates were incubated at room temperature for one hour, followed by six washes as describe above.
For the binding detection, 100 μL Tetramethylbenzidine (TMB) Substrate solution (Invitrogen, Cat #: 002023) was added to all wells for 10 minutes before stopping the reaction with 100 μL 2M HCl. The extent of the testing Abs binding to W319-hPro1.D1.ECD.hFc, W319-hPro1.D12.ECD.hFc (WT), W319-hPro1.D123.ECD.hFc (WT), W319-hPro1.D1234.ECD.hFc (WT) and W319-hPro1.ECD.hFc (WT)-P3 were determined by measuring the OD450 absorbance using the SpectraMax® M5e microplate reader. Wherever appropriate, binding EC50 values were obtained by the four-parameter non-linear regression analysis using GraphPad Prism 5 software.
Its binding epitope is different from BMKs.

[7] = target: T1, Human P-cadherin on cells; test: FACS on HCT-116 cells, antibody kept in human serum at 37 C, Day 0
Protocol: (§2) The antibody stability in human serum was tested by FACS. Briefly, human serum was freshly isolated by centrifuging the fresh blood twice at 4000 rpm for 10 minutes. […] As a control, antibodies serum mix was frozen immediately without 37° C. incubation. For the FACS analysis, the samples from different time points were free-thawed simultaneously at 4° C. […] The cells were washed twice with 1% BSA/1×PBS (Ca+/Mg+). Alexa647 conjugated Goat anti-human IgG Fc (Jackson, #109-605-098) 1:500 diluted in 1% BSA/1×PBS (Ca+/Mg+) were added to the cells and incubated at 4° C. for 30 minutes. Cells were washed twice in the same buffer and the mean fluorescence (MFI) of stained cells was measured using a FACS Canto II cytometer (BD Biosciences) and analyzed by FlowJo. Wells containing no antibody or secondary antibody only were used to establish background fluorescence. Four-parameter non-linear regression analysis was used to obtain EC50 values for cell binding using GraphPad Prism6 software.

[8] = target: T1, Human P-cadherin on cells; test: FACS on HCT-116 cells, antibody kept in human serum at 37 C, Day 4
Protocol: as §2

[9] = target: T1, Human P-cadherin on cells; test: FACS on HCT-116 cells, antibody kept in human serum at 37 C, Day 14
Protocol: as §2

T1 sequence (P22223 108-829): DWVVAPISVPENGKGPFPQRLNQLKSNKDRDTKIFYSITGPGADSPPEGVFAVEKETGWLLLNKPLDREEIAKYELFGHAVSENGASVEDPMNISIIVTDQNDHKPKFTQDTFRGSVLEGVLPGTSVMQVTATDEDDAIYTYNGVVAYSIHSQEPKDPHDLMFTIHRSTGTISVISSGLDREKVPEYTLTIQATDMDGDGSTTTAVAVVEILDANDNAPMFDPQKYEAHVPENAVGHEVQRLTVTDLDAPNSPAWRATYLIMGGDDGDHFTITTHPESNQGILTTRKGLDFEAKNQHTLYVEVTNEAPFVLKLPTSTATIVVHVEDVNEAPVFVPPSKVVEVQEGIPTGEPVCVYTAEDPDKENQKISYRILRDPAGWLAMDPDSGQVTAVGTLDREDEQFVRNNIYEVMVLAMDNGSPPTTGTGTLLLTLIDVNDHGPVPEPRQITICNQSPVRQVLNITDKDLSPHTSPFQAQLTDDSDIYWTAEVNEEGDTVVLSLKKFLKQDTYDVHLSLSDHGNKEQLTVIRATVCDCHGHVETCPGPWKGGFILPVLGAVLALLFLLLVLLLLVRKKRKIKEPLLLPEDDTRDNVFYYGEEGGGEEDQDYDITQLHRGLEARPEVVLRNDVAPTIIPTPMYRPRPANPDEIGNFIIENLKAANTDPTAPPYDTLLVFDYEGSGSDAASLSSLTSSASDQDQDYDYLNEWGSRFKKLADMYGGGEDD
T2 sequence (P22223 108-236): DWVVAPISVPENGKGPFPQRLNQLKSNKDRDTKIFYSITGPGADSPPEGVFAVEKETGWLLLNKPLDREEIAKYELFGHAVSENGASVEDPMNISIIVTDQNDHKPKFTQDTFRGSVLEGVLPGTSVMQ

B1: W3195-1.53.1-p1-uIgG1L (antibody)
heavy: not shown
light: SYELTQPPSVSVSPGQTAQITCSGDKLGDKFASWYQQKSGQSPVVVIYQDNKRPSGFPERFSGSNSGNTATLTISGTQAMDEADYYCQAWDSSIVVFGGGTKLTVLGQPKAAPSVTLFPPSSEELQANKATLVCLISDFYPGAVTVAWKADSSPVKAGVETTTPSKQSNNKYAASSYLSLTPEQWKSHRSYSCQVTHEGSTVEKTVAPTECS
notes: also called W3195-p1 antibody
[1]
  EC50: 210 pM
[2]
  EC50: 150 pM
  Max MFI: 4080
[3]
  internalization, Fab-ZAP CTG assay on HCC-1954, IC50: 20 pM
[4]
  ADCC reporter gene assay, EC50: 52 pM
  ADCC reporter gene assay, Max Fold Change: 145 fold
[5]
  cell aggregation assay on DU-145, EC50: 390 pM
  cell aggregation assay on DU-145, Max Fold change: 1.75 fold
[6]
  Max OD450: 0.07
[7]
  EC50: 200 pM
[8]
  EC50: 160 pM
[9]
  EC50: 200 pM
